These results are taken from publication PMC11441981.

What all share (experiment): GST pull-down from S2 cell lysate with mass spectrometry (volcano plot of spectral intensities)
Assay [1] has as its target γCOP. As to conditions: three biological replicates, read off a plot.
For assay [2], the target named is εCOP. The conditions noted are these: three biological replicates, read off a plot.
Assay [3] addresses Ostγ. As to conditions: three biological replicates, read off a plot.
Assay [4] deals with Arf79F. As to conditions: three biological replicates, read off a plot.
Assay [5] concerns the target CG33303. The conditions noted are these: three biological replicates, read off a plot.
Assay [6] deals with Ostδ. The conditions noted are these: three biological replicates, read off a plot.
Assay [7] deals with T1, Prat, Q27601.
T1 chain: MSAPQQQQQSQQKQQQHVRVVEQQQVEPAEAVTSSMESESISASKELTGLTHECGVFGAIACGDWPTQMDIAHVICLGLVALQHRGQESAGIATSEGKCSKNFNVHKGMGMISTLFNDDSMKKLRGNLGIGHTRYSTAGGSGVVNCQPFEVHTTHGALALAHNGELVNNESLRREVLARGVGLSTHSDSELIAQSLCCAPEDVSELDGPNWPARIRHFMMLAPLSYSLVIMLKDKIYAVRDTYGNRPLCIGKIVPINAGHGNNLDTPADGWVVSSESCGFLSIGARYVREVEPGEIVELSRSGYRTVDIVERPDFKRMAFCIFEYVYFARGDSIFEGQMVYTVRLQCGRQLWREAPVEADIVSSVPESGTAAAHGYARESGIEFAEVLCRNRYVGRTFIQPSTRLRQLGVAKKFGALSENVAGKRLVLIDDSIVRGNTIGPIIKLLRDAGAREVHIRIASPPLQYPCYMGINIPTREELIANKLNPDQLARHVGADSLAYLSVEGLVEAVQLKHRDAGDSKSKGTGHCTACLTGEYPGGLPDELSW
The conditions noted are these: chain shown with the change, three biological replicates, read off a plot.

Consider “GST-tagged CG9590 (Drosophila FAM114A) (from UniProt Q9VF39) W24A; W27A”, for which the other: Difference Log2(CG9590-GST, Wild-type vs W24,27A mutant) is 6.3 log2 in assay [1]; 5.5 log2 in assay [2]; 1.1 log2 in assay [3]; 1.4 log2 in assay [4]; 2.5 log2 in assay [5]; 1.7 log2 in assay [6].

B1: GST-tagged CG9590 (Drosophila FAM114A), Q9VF39 W24A; W27A (protein)
chain: MAKNPKKEEDGGNDWAQSDEDDNADDAGDDDDKFVHVEKEQQPQEKVSSRNDAKGTAENQEKLETPRISAPATASATSSSWGLWGGKLSSVLTTATEGLGTITTQVNQGLNQIIGVPDPEELARINVAEKAEKAAKAPPEENVDDEKESSAAFGLDFVTNLGSKVLNTGLDTLEGIGKKTMTILQDNDPKLMNKRKLLGLEANSPNLSAVLLEAKKEADQMEQSLQQLQLKRQKAQLRFEILFENYCGLVHFEALEILSKESRLKLDTLLDAVSGNARAELQETINEVKELIELEDLDVESEGDYEAEELSERLAATIKDAELGIQFDDIANHWTQSLSWLTSEEATAADLEQAYAKSIHALSEACALEMCKLHKIAELLLVKPHHSTANEVDGVVNLCQQFNGHLQGLSHRFAAVLSGKSETEESKGRVSTFFSEMLSAVQFIEKAYKLFTPILQMGAV
In assay [7], B1 yielded an other: Difference Log2(CG9590-GST, Wild-type vs W24,27A mutant) of 9.8 log2.
